The record followed here is paper PMC3378326 (Structure(London, England:1993), 2012).

The target of one assay is FGF1 (UniProt P05230 1-155). Briefly: SPR.
The next assay deals with FGF8b. Briefly: SPR.

FGF1, sequence (P05230 whole entry): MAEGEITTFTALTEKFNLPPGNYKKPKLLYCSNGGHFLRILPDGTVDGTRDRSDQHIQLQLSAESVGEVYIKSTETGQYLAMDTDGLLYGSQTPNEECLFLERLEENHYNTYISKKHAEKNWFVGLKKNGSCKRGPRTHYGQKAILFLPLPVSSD

B1: D1-AB13ALA-D2-D3 (FGFR1c) (domain or fragment)
chain: RPSPTLPEQAQPWGAPVEVESFLVHPGDLLQLRCRLRDDVQSINWLRDGVQLAESNRTRITGEEVEVQDSVPADSGLYACVTSSPSGSDTTYFSVNVSDALPSSAAAAAAAAAAAAAKETDNTKPNRMPVAPYWTSPEKMEKKLHAVPAAKTVKFKCPSSGTPNPTLRWLKNGKEFKPDHRIGGYKVRYATWSIIMDSVVPSDKGNYTCIVENEYGSINHTYQLDVVERSPHRPILQAGLPANKTVALGSNVEFMCKVYSDPQPHIQWLKHIEVNGSKIGPDNLPYVQILKTAGVNTTDKEMEVLHLRNVSFEDAGEYTCLAGNSIGLSHHSAWLTVLEALEERPAVMTSPLYLE
As to B1, the Kd with FGF1 was found to be 268 nM; with FGF8b, 329 nM.

B2: D1-D2-D3^ΔAB (FGFR1c) (domain or fragment)
chain: RPSPTLPEQAQPWGAPVEVESFLVHPGDLLQLRCRLRDDVQSINWLRDGVQLAESNRTRITGEEVEVQDSVPADSGLYACVTSSPSGSDTTYFSVNVSDALPSSKETDNTKPNRMPVAPYWTSPEKMEKKLHAVPAAKTVKFKCPSSGTPNPTLRWLKNGKEFKPDHRIGGYKVRYATWSIIMDSVVPSDKGNYTCIVENEYGSINHTYQLDVVERSPHRPILQAGLPANKTVALGSNVEFMCKVYSDPQPHIQWLKHIEVNGSKIGPDNLPYVQILKTAGVNTTDKEMEVLHLRNVSFEDAGEYTCLAGNSIGLSHHSAWLTVLEALEERPAVMTSPLYLE
With B2, the figures for the dissociation constant Kd in the assay with FGF1 and in the assay with FGF8b were 265 nM and 390 nM, respectively.
